Reference: US20100273186A1, “SPLIT MUTANT HYDROLASE FUSION REPORTER AND USES THEREOF” (Promega Corporation, priority 2007, published 2010)
Each block holds one substance with its values, some of them ahead of it.

Columns and labels:
Experiment in all cases: cell-based or functional assay
hRL (92-311)-FKBP = hRL (92-311)-FKBP (UniProt P27652)
FKBP-hRL (112-311) = FKBP-hRL (112-311) (UniProt P62942)
FKBP-hRL (92-311) = FKBP-hRL (92-311) (UniProt P62942)
hRL (112-311)-FKBP = hRL (112-311)-FKBP (UniProt P27652)
Chain of hRL (112-311)-FKBP (P27652 other isoform, or with tags, fused parts or gaps): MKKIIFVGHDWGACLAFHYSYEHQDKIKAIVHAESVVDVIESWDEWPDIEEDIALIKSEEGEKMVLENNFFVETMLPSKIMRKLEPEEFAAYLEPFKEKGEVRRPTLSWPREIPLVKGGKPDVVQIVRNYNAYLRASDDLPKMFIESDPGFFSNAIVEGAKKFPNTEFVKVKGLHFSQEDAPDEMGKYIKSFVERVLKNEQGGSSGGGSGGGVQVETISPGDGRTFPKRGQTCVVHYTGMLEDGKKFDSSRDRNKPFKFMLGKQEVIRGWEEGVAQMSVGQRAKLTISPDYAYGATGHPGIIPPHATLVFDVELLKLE

Chain of FKBP-hRL (112-311) (P62942 other isoform, or with tags, fused parts or gaps): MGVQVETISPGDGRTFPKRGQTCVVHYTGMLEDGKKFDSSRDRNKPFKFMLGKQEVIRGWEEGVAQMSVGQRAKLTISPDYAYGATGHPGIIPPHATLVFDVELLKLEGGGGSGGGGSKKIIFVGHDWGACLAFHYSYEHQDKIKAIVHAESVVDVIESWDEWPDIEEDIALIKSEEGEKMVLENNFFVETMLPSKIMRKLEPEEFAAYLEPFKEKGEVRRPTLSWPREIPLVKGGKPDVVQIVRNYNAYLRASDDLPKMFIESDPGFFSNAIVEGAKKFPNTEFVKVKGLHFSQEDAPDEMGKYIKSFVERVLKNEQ
Chain of hRL (1-91)-FRB (P27652 other isoform, or with tags, fused parts or gaps): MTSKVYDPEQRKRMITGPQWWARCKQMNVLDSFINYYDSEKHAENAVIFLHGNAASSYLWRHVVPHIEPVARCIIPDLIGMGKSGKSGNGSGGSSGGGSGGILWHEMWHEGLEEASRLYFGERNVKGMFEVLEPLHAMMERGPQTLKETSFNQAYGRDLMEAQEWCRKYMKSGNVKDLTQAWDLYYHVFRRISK
Chain of hRL (1-111)-FRB (P27652 other isoform, or with tags, fused parts or gaps): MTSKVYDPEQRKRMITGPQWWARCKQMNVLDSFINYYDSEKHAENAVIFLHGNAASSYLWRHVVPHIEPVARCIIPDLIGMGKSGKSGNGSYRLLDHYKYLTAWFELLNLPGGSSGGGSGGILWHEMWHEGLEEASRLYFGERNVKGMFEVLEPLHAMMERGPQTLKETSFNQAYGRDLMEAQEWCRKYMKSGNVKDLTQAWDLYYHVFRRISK
Chain of FKBP-hRL (92-311) (P62942 other isoform, or with tags, fused parts or gaps): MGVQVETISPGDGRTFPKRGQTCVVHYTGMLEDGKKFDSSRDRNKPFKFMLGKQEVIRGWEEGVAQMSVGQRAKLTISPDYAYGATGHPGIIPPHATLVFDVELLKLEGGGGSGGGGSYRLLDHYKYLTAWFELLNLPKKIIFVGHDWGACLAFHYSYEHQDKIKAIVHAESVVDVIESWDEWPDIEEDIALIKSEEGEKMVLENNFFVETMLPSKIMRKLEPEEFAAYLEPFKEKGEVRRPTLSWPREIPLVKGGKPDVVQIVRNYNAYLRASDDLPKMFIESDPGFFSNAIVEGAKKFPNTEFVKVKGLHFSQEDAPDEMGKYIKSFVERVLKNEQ
Chain of hRL (92-311)-FKBP (P27652 other isoform, or with tags, fused parts or gaps): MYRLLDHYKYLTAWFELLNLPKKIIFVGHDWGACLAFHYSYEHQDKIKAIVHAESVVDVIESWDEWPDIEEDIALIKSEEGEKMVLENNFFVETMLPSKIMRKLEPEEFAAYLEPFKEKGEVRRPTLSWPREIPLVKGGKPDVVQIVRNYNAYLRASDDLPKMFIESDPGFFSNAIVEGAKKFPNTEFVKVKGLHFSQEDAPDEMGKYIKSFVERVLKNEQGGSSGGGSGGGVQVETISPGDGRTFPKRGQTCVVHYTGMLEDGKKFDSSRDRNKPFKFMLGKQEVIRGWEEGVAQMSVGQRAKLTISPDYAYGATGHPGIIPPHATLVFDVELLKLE

Renilla luciferase activity (PCA, TnT lysate) (fold (+rapamycin against no rapamycin)) (hRL (92-311)-FKBP): 134
Substance: FRB-hRL (1-91) (from UniProt P42345 2021-2113; P27652 1-91)

Renilla luciferase activity (PCA, TnT lysate) (fold (+rapamycin against no rapamycin)) (FKBP-hRL (112-311)): 81
Substance: hRL (1-111)-FRB (from UniProt P27652 1-111; P42345 2021-2113)

Renilla luciferase activity (PCA, TnT lysate) (fold (+rapamycin against no rapamycin)) (FKBP-hRL (92-311)): 8.6
Substance: hRL (1-91)-FRB (from UniProt P27652 1-91; P42345 2021-2113)

Renilla luciferase activity (PCA, TnT lysate) (fold (+rapamycin against no rapamycin)) (hRL (112-311)-FKBP): 46
Renilla luciferase activity (PCA, TnT lysate) (fold (+rapamycin against no rapamycin)) (FKBP-hRL (112-311)): 5.3
Substance: FRB-hRL (1-111) (from UniProt P42345 2021-2113; P27652 1-111)
